Variants at the floor of the assay were thinned out.
Columns and labels:
[1] = system: biotinyl-Phe-oxazolone; assay: self-aminoacylation, catalytic enhancement (BFO) (fold over background); higher = more active; k-Seq, kA / k0A0; sequences stand for … in GGGAAUGGAUCCACAUCUACGAAUUC…UUCACUGCAGACUUGACGAAGCUG
Outline: (§1)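 Mutagenized RNA pools with a 21-nt variable region (0.43 μM) were reacted with each biotinyl-aminoacyl-oxazolone at 2–1250 μM for 90 minutes at room temperature, in 50 μL HEPES/NaCl/KCl/MgCl2/CaCl2 buffer containing 5% acetonitrile at pH 6.9–7.0. RNA captured on streptavidin was quantified by triplicate qPCR and by Illumina sequencing. The fraction reacted for each sequence was fit to a pseudo-first-order model with bootstrapping, and catalytic enhancement is the median kA divided by the uncatalyzed rate, taken as the low-activity peak of a bimodal Gaussian fit.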

[2] = system: biotinyl-Ile-oxazolone; assay: self-aminoacylation, catalytic enhancement (BIO) (fold over background); higher = more active; k-Seq, kA / k0A0; sequences stand for … in GGGAAUGGAUCCACAUCUACGAAUUC…UUCACUGCAGACUUGACGAAGCUG
Outline: as §1

[3] = system: biotinyl-Met-oxazolone; assay: self-aminoacylation, catalytic enhancement (BMO) (fold over background); higher = more active; k-Seq, kA / k0A0; sequences stand for … in GGGAAUGGAUCCACAUCUACGAAUUC…UUCACUGCAGACUUGACGAAGCUG
Outline: as §1

[4] = system: biotinyl-Val-oxazolone; assay: self-aminoacylation, catalytic enhancement (BVO) (fold over background); higher = more active; k-Seq, kA / k0A0; sequences stand for … in GGGAAUGGAUCCACAUCUACGAAUUC…UUCACUGCAGACUUGACGAAGCUG
Outline: as §1

[5] = system: biotinyl-Leu-oxazolone; assay: self-aminoacylation, catalytic enhancement (BLO) (fold over background); higher = more active; k-Seq, kA / k0A0; sequences stand for … in GGGAAUGGAUCCACAUCUACGAAUUC…UUCACUGCAGACUUGACGAAGCUG
Outline: as §1

[6] = system: biotinyl-Trp-oxazolone; assay: self-aminoacylation, catalytic enhancement (BWO) (fold over background); higher = more active; k-Seq, kA / k0A0; sequences stand for … in GGGAAUGGAUCCACAUCUACGAAUUC…UUCACUGCAGACUUGACGAAGCUG
Outline: as §1

| Sequence | self-aminoacylation [1] | self-aminoacylation [2] | self-aminoacylation [3] | self-aminoacylation [4] | self-aminoacylation [5] | self-aminoacylation [6] |
| --- | --- | --- | --- | --- | --- | --- |
| AUUACCCUGGUCAUGGUGUGA [Fam2.1 aminoacylation ribozyme variant] | 4.16 | 1.27 | 1.64 | 1.18 | 1.84 | 2.24 |
| AUUACCCUGGUCAUUAAGUGA [Fam2.1 aminoacylation ribozyme variant] | 55.5 | 4.88 | 11.2 | 5.31 | 10.3 | 13.4 |
| AUUACCCUGGUCAUUGAGCGA [Fam2.1 aminoacylation ribozyme variant] | 4.43 | 1.45 | 1.16 | 1.41 | 1.44 | 1.66 |
| AUUACCCUGGUCCUCAAGUGA [Fam2.1 aminoacylation ribozyme variant] | 7.45 | 1.64 | 2.16 | 2.02 | 2.29 | 3.02 |
| AUUACCCUGGUCCUCGAGUGC [Fam2.1 aminoacylation ribozyme variant] | 2.51 | 0.969 | 0.658 | 1.06 | 1.07 | 1.31 |
| AUUACCCUGGUCGACGAGUGA [Fam2.1 aminoacylation ribozyme variant] | 26.4 | 2.86 | 5.53 | 3.33 | 5.32 | 6.05 |
| AUUACCCUGGUCGGCGAGUGA [Fam2.1 aminoacylation ribozyme variant] | 53.6 | 5.39 | 7.37 | 5.03 | 9.02 | 8.06 |
| AUUACCCUGGUCGUAGAGUGA [Fam2.1 aminoacylation ribozyme variant] | 3.08 | 1.17 | 1.28 | 1.09 | 1.84 | 2.26 |
| AUUACCCUGGUCGUCGAGUAA [Fam2.1 aminoacylation ribozyme variant] | 1.08 | 1.27 | 1.3 | 1.12 | 1.68 | 0.721 |
| AUUACCCUGGUCGUCGAGUCA [Fam2.1 aminoacylation ribozyme variant] | 0.524 | 1.05 | 0.904 | 1.05 | 0.956 | 0.444 |
| AUUACCCUGGUCUCCGAGUGA [Fam2.1 aminoacylation ribozyme variant] | 64.4 | 3.95 | 7.41 | 4.33 | 8.91 | 9.46 |
| AUUACCCUGGUCUUCAAGUGA [Fam2.1 aminoacylation ribozyme variant] | 23.8 | 2.76 | 4.91 | 2.67 | 4.28 | 5.67 |
| AUUACCCUGGUCUUCCAGUGA [Fam2.1 aminoacylation ribozyme variant] | 31.7 | 3.79 | 5.48 | 3.51 | 5.94 | 6.46 |
| AUUACCCUGGUCUUCGAGUCA [Fam2.1 aminoacylation ribozyme variant] | 0.638 | 0.953 | 0.844 | 0.873 | 0.903 | 0.688 |
| AUUACCCUGGUCUUCGAGUGG [Fam2.1 aminoacylation ribozyme variant] | 4.91 | 0.992 | 1.34 | 1.07 | 1.69 | 0.855 |
| AUUACCCUGGUCUUCGCGUGA [Fam2.1 aminoacylation ribozyme variant] | 55.2 | 5.89 | 9.58 | 6.16 | 9.77 | 11.5 |
| AUUACCCUGGUCUUCGUGUGA [Fam2.1 aminoacylation ribozyme variant] | 7.45 | 1.05 | 1.46 | 1.02 | 1.45 | 1.93 |
| AUUACCCUGGUGAUCGCGUGA [Fam2.1 aminoacylation ribozyme variant] | 44.2 | 3.45 | 4.66 | 4.19 | 4.38 | 6.27 |
| AUUACCCUGGUGCUCGAGUGA [Fam2.1 aminoacylation ribozyme variant] | 25 | 2.14 | 3.93 | 2.38 | 4.67 | 5.2 |
| AUUACCCUGGUGUUCGAGUGA [Fam2.1 aminoacylation ribozyme variant] | 45.5 | 2.73 | 5.65 | 3.21 | 6.71 | 7.61 |
| AUUACCCUGGUUAUCGAGUAA [Fam2.1 aminoacylation ribozyme variant] | 1.44 | 1.31 | 1.44 | 1.24 | 1.32 | 1.89 |
| AUUACCCUGGUUAUCGAGUGA [Fam2.1 aminoacylation ribozyme variant] | 25.2 | 3.83 | 8.65 | 4.27 | 8.64 | 10.3 |
| AUUACCCUGGUUAUCGGGUGA [Fam2.1 aminoacylation ribozyme variant] | 94.3 | 5.12 | 12.8 | 6.66 | 13.6 | 14.8 |
| AUUACCCUGUUAAUCGAGUGA [Fam2.1 aminoacylation ribozyme variant] | 54.5 | 4.91 | 9.91 | 5.36 | 9.68 | 13.4 |
| AUUACCCUGUUCACCGAGUGA [Fam2.1 aminoacylation ribozyme variant] | 77.2 | 4.79 | 11 | 5 | 11.6 | 12.7 |
| AUUACCCUGUUCAUCCAGUGA [Fam2.1 aminoacylation ribozyme variant] | 23 | 3.76 | 5.95 | 3.52 | 5.85 | 8.43 |

| Sequence | self-aminoacylation [1] | self-aminoacylation [2] | self-aminoacylation [3] | self-aminoacylation [4] | self-aminoacylation [5] | self-aminoacylation [6] |
| --- | --- | --- | --- | --- | --- | --- |
| AUUACCCUGUUCAUCGAGUGA [Fam2.1 aminoacylation ribozyme variant] | 16.6 | 2.97 | 5.57 | 3.22 | 5.44 | 7.34 |
| AUUACCCUGUUCAUCGGGUGA [Fam2.1 aminoacylation ribozyme variant] | 64.2 | 4.92 | 9.44 | 5.19 | 9.74 | 12 |
| AUUACCCUGUUCGUCGAGUGA [Fam2.1 aminoacylation ribozyme variant] | 0.834 | 1.15 | 0.885 | 1.2 | 0.865 | 1.44 |
| AUUACCCUGUUCUUCGAGUGA [Fam2.1 aminoacylation ribozyme variant] | 23.3 | 3.05 | 5.6 | 3.41 | 5.58 | 7.83 |
| AUUACCCUUAUCAUCGAGUGA [Fam2.1 aminoacylation ribozyme variant] | 60.8 | 5.68 | 14.1 | 6.51 | 13.2 | 16.7 |
| AUUACCCUUGUCAUCAAGUGA [Fam2.1 aminoacylation ribozyme variant] | 12.5 | 2.2 | 4.86 | 2.77 | 4.43 | 6.3 |
| AUUACCCUUGUCAUCUAGUGA [Fam2.1 aminoacylation ribozyme variant] | 26.5 | 3.76 | 7.09 | 3.81 | 7.22 | 8.68 |
| AUUACCGAGGUCAUCGAGUGA [Fam2.1 aminoacylation ribozyme variant] | 38.1 | 3.99 | 6.93 | 4.64 | 8.4 | 10.8 |
| AUUACCGCGGUCAUCGAGUGA [Fam2.1 aminoacylation ribozyme variant] | 36.1 | 3.36 | 5.86 | 3.11 | 6.47 | 7.16 |
| AUUACCGUCGUCAUCGAGUGA [Fam2.1 aminoacylation ribozyme variant] | 8.91 | 2.36 | 3.23 | 2.3 | 3.42 | 3.88 |
| AUUACCGUGAUCAUCGAGUGA [Fam2.1 aminoacylation ribozyme variant] | 44.9 | 4.18 | 9.07 | 4.34 | 8.78 | 10.5 |
| AUUACCGUGGACAUCGAGUGA [Fam2.1 aminoacylation ribozyme variant] | 3.62 | 2.29 | 3.47 | 2.68 | 3.92 | 5.62 |
| AUUACCGUGGCCAUCGAGUGA [Fam2.1 aminoacylation ribozyme variant] | 32.8 | 3.2 | 4.71 | 3.89 | 5.84 | 8.11 |
| AUUACCGUGGUAAUCGAGUGA [Fam2.1 aminoacylation ribozyme variant] | 43.2 | 3.63 | 8.54 | 4.18 | 9.2 | 9.95 |
| AUUACCGUGGUCAACGAGUGA [Fam2.1 aminoacylation ribozyme variant] | 36.7 | 3.61 | 6.41 | 4.21 | 7.25 | 9.2 |
| AUUACCGUGGUCAUCGAGUGG [Fam2.1 aminoacylation ribozyme variant] | 7.04 | 1.27 | 1.85 | 1.33 | 1.81 | 1.72 |
| AUUACCGUGGUCAUCGAGUGU [Fam2.1 aminoacylation ribozyme variant] | 12.9 | 1.89 | 3.17 | 2.46 | 3.51 | 4.27 |
| AUUACCGUGGUCCUCGAGUGA [Fam2.1 aminoacylation ribozyme variant] | 29.2 | 2.57 | 4.11 | 3.69 | 4.19 | 4.82 |
| AUUACCGUGGUUAUCGAGUGA [Fam2.1 aminoacylation ribozyme variant] | 59.4 | 4.22 | 10.7 | 5.1 | 10.4 | 11.4 |
| AUUACCUUGGUCAUCGAGUCA [Fam2.1 aminoacylation ribozyme variant] | 0.473 | 0.854 | 0.691 | 0.81 | 0.786 | 0.599 |
| AUUACCUUGGUCAUCGAGUGA [Fam2.1 aminoacylation ribozyme variant] | 7.72 | 3.7 | 6.66 | 3.88 | 6.89 | 8.16 |
| AUUACCUUGGUCAUCGAGUUA [Fam2.1 aminoacylation ribozyme variant] | 0.913 | 1.18 | 1.19 | 1.03 | 0.814 | 0.524 |
| AUUACGAUGGUCAUCGAGUGA [Fam2.1 aminoacylation ribozyme variant] | 12.3 | 2.99 | 3.43 | 3.17 | 4.54 | 4.79 |
| AUUACGCUGGUAAUCGAGUGA [Fam2.1 aminoacylation ribozyme variant] | 18.7 | 2.84 | 5.48 | 2.77 | 5.76 | 7.02 |
| AUUACGCUGGUCAUCGAGAGA [Fam2.1 aminoacylation ribozyme variant] | 1.36 | 1.21 | 1.44 | 1.73 | 1.42 | 1.59 |

Source: the supplement of paper PMC9233669
